Assay results: PMC2955897 (Journal of immunology (Baltimore, Md. : 1950), 2009)
Like-named read-outs stand apart in the source and are kept apart here.

T1: Toll-like receptor 4 (mouse (endogenous in TG-elicited …, UniProt Q9QUK6 26-835))
T1 sequence (looked up): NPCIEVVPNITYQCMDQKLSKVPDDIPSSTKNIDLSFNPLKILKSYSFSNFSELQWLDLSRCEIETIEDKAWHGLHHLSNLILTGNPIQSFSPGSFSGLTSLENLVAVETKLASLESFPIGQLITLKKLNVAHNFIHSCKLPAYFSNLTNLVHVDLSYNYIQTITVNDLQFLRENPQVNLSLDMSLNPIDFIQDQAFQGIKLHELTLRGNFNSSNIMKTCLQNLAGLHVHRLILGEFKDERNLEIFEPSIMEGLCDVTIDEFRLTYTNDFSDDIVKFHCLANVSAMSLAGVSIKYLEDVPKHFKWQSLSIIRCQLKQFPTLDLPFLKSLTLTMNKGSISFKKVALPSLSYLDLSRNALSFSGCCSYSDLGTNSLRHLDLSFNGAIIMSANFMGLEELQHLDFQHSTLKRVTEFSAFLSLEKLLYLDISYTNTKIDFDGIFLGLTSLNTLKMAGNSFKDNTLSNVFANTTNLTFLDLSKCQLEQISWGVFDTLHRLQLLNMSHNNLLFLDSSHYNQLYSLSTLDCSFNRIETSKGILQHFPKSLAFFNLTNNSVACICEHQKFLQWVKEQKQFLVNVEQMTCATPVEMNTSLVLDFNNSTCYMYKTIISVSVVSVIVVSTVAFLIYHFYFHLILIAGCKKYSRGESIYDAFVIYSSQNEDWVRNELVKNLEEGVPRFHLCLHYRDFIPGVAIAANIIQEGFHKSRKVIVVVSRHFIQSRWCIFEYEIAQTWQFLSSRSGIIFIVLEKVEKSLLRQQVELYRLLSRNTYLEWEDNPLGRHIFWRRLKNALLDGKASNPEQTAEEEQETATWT


Legend:
Assay in all cases: flow cytometry on cells
Toll-like receptor 4 [1] = target: T1, Toll-like receptor 4
Toll-like receptor 4 [2] = target: T1, Toll-like receptor 4; remark: listed apart in the source
Toll-like receptor 4 [3] = target: T1, Toll-like receptor 4; remark: listed apart in the source

Row | Binder | Ki (Toll-like receptor 4 [1]) [mM] | Kd (Toll-like receptor 4 [2]) [mM] | Kd (Toll-like receptor 4 [3]) [mM]
1 | FITC-conjugated Prx1 (recombinant human) (natural protein, UniProt Q06830 1-199, looked up, FITC conjugated (FITC conjugation kit, Sigma; residues not stated)) MSSGNAKIGHPAPNFKATAVMPDGQFKDISLSDYKGKYVVFFFYPLDFTFVCPTEIIAFSDRAEEFKKLNCQVIGASVDSHFCHLAWVNTPKKQGGLGPMNIPLVSDPKRTIAQDYGVLKADEGISFRGLFIIDDKGILRQITVNDLPVGRSVDETLRLVQAFQFTDKHGEVCPAGWKPGSDTIKPDVQKSKEYFSKQK |  | ~1.3 | 1.6
2 | FITC-conjugated Prx1C52S (recombinant human) (natural protein, UniProt Q06830 1-199, looked up, FITC conjugated (FITC conjugation kit, Sigma; residues not stated)) MSSGNAKIGHPAPNFKATAVMPDGQFKDISLSDYKGKYVVFFFYPLDFTFVSPTEIIAFSDRAEEFKKLNCQVIGASVDSHFCHLAWVNTPKKQGGLGPMNIPLVSDPKRTIAQDYGVLKADEGISFRGLFIIDDKGILRQITVNDLPVGRSVDETLRLVQAFQFTDKHGEVCPAGWKPGSDTIKPDVQKSKEYFSKQK |  |  | 2.5

Second part, the binder after the results:

Row | Ki (Toll-like receptor 4 [1]) [mM] | Kd (Toll-like receptor 4 [2]) [mM] | Kd (Toll-like receptor 4 [3]) [mM] | Binder
3 | 4.1 |  |  | Peroxiredoxin 1 (recombinant human Prx1, unlabeled) (natural protein, UniProt Q06830 1-199, looked up) MSSGNAKIGHPAPNFKATAVMPDGQFKDISLSDYKGKYVVFFFYPLDFTFVCPTEIIAFSDRAEEFKKLNCQVIGASVDSHFCHLAWVNTPKKQGGLGPMNIPLVSDPKRTIAQDYGVLKADEGISFRGLFIIDDKGILRQITVNDLPVGRSVDETLRLVQAFQFTDKHGEVCPAGWKPGSDTIKPDVQKSKEYFSKQK
4 | 5.2 |  |  | Prx1C52S (recombinant human, unlabeled) (natural protein, UniProt Q06830 1-199, looked up) MSSGNAKIGHPAPNFKATAVMPDGQFKDISLSDYKGKYVVFFFYPLDFTFVSPTEIIAFSDRAEEFKKLNCQVIGASVDSHFCHLAWVNTPKKQGGLGPMNIPLVSDPKRTIAQDYGVLKADEGISFRGLFIIDDKGILRQITVNDLPVGRSVDETLRLVQAFQFTDKHGEVCPAGWKPGSDTIKPDVQKSKEYFSKQK
